Laboratory results reported in US20120276009A1 (KATHOLIEKE UNIVERSITEIT LEUVEN, published 2012).

T1: T1.6: Tau5-20 (non-phosphorylated peptide) (human)
T1 construct: Non-phosphorylated counterpart of T1.5; also called Tau peptide
T1 peptide: RQEFEVMEDHAGTYGL

B1: ACI-35-2G5-Ab1 (antibody, IgG2b, V domains shown)
VH: QVQLKQSGAELVRPGASVKLSCKASGYTFTDYYINWVKQRPGQGLEWIARIYPGRGNIYYNEKFKGKATLTAEKSSSTAYMQLSSLTSEDSAVYFCARFWDVTYWGQGTLVTVSA
VL: DVLMTQTPLSLPVSLGDQASISCRSSQSIVHSNGNTYLEWFLQKPGQSPKLLIYKVSNRFSGVPDRFSGSGSGTDFTLKISRVEAEDLGVYYCFQGSHVPYTFGGGTKLEIK
notes: Mouse monoclonal from hybridoma A6-2G5-08; also called A6-2G5-08
B2: ACI-33-6C10-Ab2 (antibody, IgG3, V domains shown)
VH: EVQLVESGGGLVKPGGSLKLSCAPSGFTFSDYGMHWVRQAPEKGLEWVAYISSGSSTIYYGDTVKGRFTISRDNAKNTLFLQMTSLRSEDTAMYYCARRGQLRLRLFAYWGQGTLVTVSA
VL: DIVMTQSHKFMSTSVGDRVSITCKASQDVSTAVAWYQQKPGQSPKLLIYSASYRYTGVPDRFTGSGSGTDFTFTISSVQAEDLAVYYCQQHYTTPLTFGAGTKLELK
notes: Mouse monoclonal from hybridoma 6C10E5E9C12 (DSM ACC3081); also called 6C10E5E9C12

Key:
[1] = biological target: T2, full-length (441 aa) human Tau protein (human, UniProt P10636 1-758); assay: ELISA, protein coated at 1 µg/mL
T2 construct: Non-phosphorylated recombinant protein bought from SignalChem; also called Full-length Tau; Tau40
T2 sequence (P10636 other isoform, or with tags, fused parts or gaps limits assumed): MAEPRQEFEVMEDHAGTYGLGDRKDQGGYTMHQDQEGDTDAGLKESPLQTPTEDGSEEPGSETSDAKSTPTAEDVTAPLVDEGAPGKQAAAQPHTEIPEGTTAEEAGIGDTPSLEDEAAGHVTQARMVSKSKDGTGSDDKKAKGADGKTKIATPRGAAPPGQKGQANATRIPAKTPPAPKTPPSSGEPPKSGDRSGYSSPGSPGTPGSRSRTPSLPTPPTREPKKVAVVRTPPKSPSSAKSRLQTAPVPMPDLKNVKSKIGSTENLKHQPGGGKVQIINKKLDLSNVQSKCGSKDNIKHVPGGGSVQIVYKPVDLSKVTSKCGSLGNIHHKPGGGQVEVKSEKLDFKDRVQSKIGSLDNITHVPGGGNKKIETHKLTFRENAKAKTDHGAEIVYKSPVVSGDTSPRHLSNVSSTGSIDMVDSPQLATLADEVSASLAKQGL

[2] = biological target: T1, T1.6: Tau5-20 (non-phosphorylated …); assay: ELISA, peptide coated at 10 µg/mL

| Binder | binding result [1] | binding result [2] |
| --- | --- | --- |
| B1 | no binding (tested: 20 µg/mL) | – |
| B2 | – | no binding (tested: 20 µg/mL) |
